These are literature values, as cited in PMC3085179.

The target of the series is intermediate affinity IL-2 receptor (Homo sapiens) (UniProt P14784).
UniProt P14784, sequence (P14784 27-240, chain 1 of 2): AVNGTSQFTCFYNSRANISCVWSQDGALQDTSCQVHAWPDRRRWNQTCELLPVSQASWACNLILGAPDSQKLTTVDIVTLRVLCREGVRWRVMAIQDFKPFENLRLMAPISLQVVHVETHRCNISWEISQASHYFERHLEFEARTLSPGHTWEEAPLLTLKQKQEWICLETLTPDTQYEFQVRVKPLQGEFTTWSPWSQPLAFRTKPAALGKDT
UniProt P14784, sequence (P31785 23-262, chain 2 of 2, further chain): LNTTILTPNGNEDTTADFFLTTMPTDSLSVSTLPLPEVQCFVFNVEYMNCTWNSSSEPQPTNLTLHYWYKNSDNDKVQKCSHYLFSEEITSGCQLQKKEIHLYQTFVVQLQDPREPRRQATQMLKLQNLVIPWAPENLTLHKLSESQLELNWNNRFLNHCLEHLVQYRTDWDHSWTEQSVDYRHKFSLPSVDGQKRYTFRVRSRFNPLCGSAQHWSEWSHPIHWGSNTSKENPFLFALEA

IL-2, sequence (P60568 21-153): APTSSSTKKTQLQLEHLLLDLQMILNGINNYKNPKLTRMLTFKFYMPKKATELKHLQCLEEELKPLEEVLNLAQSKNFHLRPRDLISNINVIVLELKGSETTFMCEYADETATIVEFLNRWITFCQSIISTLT

On to IL-2 (from UniProt P60568), for which the Kd is 1 nM.
